This test has as its target MBP-KRAB (ZNF93 KRAB E35R), P35789. As to the kind of experiment: SPR. The following applies: chain shown with the change; MBP-KRAB immobilized on the chip; KAP1 RBCC as mobile phase.

Sequence of MBP-KRAB (ZNF93 KRAB E35R), P35789 (P35789 2-71 E35R): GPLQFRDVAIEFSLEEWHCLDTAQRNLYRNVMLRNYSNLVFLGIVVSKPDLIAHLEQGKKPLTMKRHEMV

B1: m11; m9 KAP1:R311E; ZNF93 KRAB:E35R (protein)
chain: MAASAAAASAAAASAASGSPGPGEGSAGGEKRSTAPSAAASASASAAASSPAGGGAEALELLEHCGVCRERLRPEREPRLLPCLHSACSACLGPAAPAAANSSGDGGAAGDGTVVDCPVCKQQCFSKDIVENYFMRDSGSKAATDAQDANQCCTSCEDNAPATSYCVECSEPLCETCVEAHQRVKYTKDHTVRSTGPAKSRDGERTVYCNVHKHEPLVLFCESCDTLTCRDCQLNAHKDHQYQFLEDAVRNQRKLLASLVKRLGDKHATLQKSTKEVRSSIRQVSDVQKRVQVDVKMAILQIMKELNKRGEVLVNDAQKVTEGQQERLERQHWTMTKIQKHQEHILRFASWALESDNNTALLLSKKLIYFQLHRALKMIVDPVEPHGEMKFQWDLNAWTKSAEAFGKIVAERPGTNSTGPAPMAPPRAPGPLSKQGSGSSQPMEVQEGYGFGSGDDPYSSAEPHVSGVKRSRSGEGEVSGLMRKVPRVSLERLDLDLTADSQPPVFKVFPGSTTEDYNLIVIERGAAAAATGQPGTAPAGTPGAPPLAGMAIVKEEETEAAIGAPPTATEGPETKPVLMALAEGPGAEGPRLASPSGSTSSGLEVVAPEGTSAPGGGPGTLDDSATICRVCQKPGDLVMCNQCEFCFHLDCHLPALQDVPGEEWSCSLCHVLPDLKEEDGSLSLDGADSTGVVAKLSPANQRKCERVLLALFCHEPCRPLHQLATDSTFSLDQPGGTLDLTLIRARLQEKLSPPYSSPQEFAQDVGRMFKQFNKLTEDKADVQSIIGLQRFFETRMNEAFGDTKFSAVLVEPPPMSLPGAGLSSQELSGGPGDGP
As usually defined, the Kd is the equilibrium constant for the complex coming apart. A high value points to a looser complex. B1: the equilibrium dissociation constant (Kd) was 71.8 nM.

For the origin of these results see article PMC9753469.
